Test results taken from US20260167699A1 (Chugai, published 2026).
Numbering of substitutions follows the chain as printed. Each block holds one binder with its values, some of them ahead of it.

Legend:
Assay in all cases: SPR, relative to GpH7-A5/GpH7-B3/GpL16-k0 =100
[1] = target: T1, FcγRIa (human, UniProt P12314 16-292)
T1 construct: extracellular domain; also called 1a

[2] = target: T2, FcγRIIa(R) (human, UniProt P12318 34-217)
T2 construct: extracellular domain; also called 2aR
T2 sequence: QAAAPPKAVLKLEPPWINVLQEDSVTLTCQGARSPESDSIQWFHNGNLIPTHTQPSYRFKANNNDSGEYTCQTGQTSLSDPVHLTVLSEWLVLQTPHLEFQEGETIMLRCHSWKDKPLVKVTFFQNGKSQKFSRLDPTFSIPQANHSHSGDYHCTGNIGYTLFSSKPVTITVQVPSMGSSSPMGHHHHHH

[3] = target: T3, FcγRIIa(H) (human, UniProt P12318 34-217)
T3 construct: extracellular domain; also called 2aH
T3 sequence: T2 sequence with R134H

[4] = target: T4, FcγRIIb (human, UniProt P31994 43-217)
T4 construct: extracellular domain; also called 2b
T4 sequence: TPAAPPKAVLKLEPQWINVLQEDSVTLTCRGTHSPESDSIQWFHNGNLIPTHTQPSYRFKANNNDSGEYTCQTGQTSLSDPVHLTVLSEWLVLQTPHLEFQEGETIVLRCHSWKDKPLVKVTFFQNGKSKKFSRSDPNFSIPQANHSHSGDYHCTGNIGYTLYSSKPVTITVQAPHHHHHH

T1 sequence (P12314 other isoform, or with tags, fused parts or gaps): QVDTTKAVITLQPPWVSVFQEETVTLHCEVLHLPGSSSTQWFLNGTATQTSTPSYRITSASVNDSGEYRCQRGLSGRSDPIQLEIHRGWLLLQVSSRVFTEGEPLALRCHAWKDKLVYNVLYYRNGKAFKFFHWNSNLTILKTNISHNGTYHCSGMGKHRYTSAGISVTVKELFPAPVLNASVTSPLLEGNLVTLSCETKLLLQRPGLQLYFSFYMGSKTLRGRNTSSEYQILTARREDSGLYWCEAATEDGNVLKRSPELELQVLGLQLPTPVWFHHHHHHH

He/Con 1a [1]: 106% | He/Con 2aR [2]: 108% | He/Con 2aH [3]: 105% | He/Con 2b [4]: 119%
B1: GpH7-A5/GpH7-B3 variant K326_01G/GpL16-k0 (antibody, human IgG1, kappa)
heavy 1: not shown
heavy 2: not shown
light: DIVMTQSPLSLPVTPGEPASISCQASESLVHSNRNTYLHWYLQKPGQSPQLLIYKVSNRFSGVPDRFSGSGSGTDFTLKISRVEAEDVGVYYCSQNTHVPPTFGQGTKVEIERTVAAPSVFIFPPSDEQLKSGTASVVCLLNNFYPREAKVQWKVDNALQSGNSQESVTEQDSKDSTYSLSSTLTLSKADYEKHKVYACEVTHQGLSSPVTKSFNRGEC
notes: He Ab: heterodimerized IgG1, one H chain mutated

He/Con 1a [1]: 108% | He/Con 2aR [2]: 124% | He/Con 2aH [3]: 106% | He/Con 2b [4]: 156%
B2: GpH7-A5/GpH7-B3 variant K326_19Q/GpL16-k0 (antibody, human IgG1, kappa)
heavy 1: not shown
heavy 2: not shown
light: B1 light
notes: as for B1

He/Con 1a [1]: 109% | He/Con 2aR [2]: 142% | He/Con 2aH [3]: 106% | He/Con 2b [4]: 224%
B3: GpH7-A5/GpH7-B3 variant K326_10E/GpL16-k0 (antibody, human IgG1, kappa)
heavy 1: not shown
heavy 2: not shown
light: B1 light
notes: as for B1

He/Con 1a [1]: 106% | He/Con 2aR [2]: 141% | He/Con 2aH [3]: 104% | He/Con 2b [4]: 223%
B4: GpH7-A5/GpH7-B3 variant K326_07I/GpL16-k0 (antibody, human IgG1, kappa)
heavy 1: not shown
heavy 2: not shown
light: B1 light
notes: as for B1

He/Con 1a [1]: 106% | He/Con 2aR [2]: 119% | He/Con 2aH [3]: 110% | He/Con 2b [4]: 139%
B5: GpH7-A5/GpH7-B3 variant K326_13S/GpL16-k0 (antibody, human IgG1, kappa)
heavy 1: not shown
heavy 2: not shown
light: B1 light
notes: as for B1

He/Con 1a [1]: 105% | He/Con 2aR [2]: 131% | He/Con 2aH [3]: 96.5% | He/Con 2b [4]: 198%
B6: GpH7-A5/GpH7-B3 variant K326_08L/GpL16-k0 (antibody, human IgG1, kappa)
heavy 1: not shown
heavy 2: not shown
light: B1 light
notes: as for B1

He/Con 1a [1]: 80.1% | He/Con 2aR [2]: 76% | He/Con 2aH [3]: 57.1% | He/Con 2b [4]: 60.4%
B7: GpH7-A5/GpH7-B3 variant P329_09D/GpL16-k0 (antibody, human IgG1, kappa)
heavy 1: not shown
heavy 2: not shown
light: B1 light
notes: as for B1

He/Con 1a [1]: 109% | He/Con 2aR [2]: 142% | He/Con 2aH [3]: 115% | He/Con 2b [4]: 216%
B8: GpH7-A5/GpH7-B3 variant K326_09D/GpL16-k0 (antibody, human IgG1, kappa)
heavy 1: not shown
heavy 2: not shown
light: B1 light
notes: as for B1

He/Con 1a [1]: 107% | He/Con 2aR [2]: 135% | He/Con 2aH [3]: 101% | He/Con 2b [4]: 196%
B9: GpH7-A5/GpH7-B3 variant K326_03V/GpL16-k0 (antibody, human IgG1, kappa)
heavy 1: not shown
heavy 2: not shown
light: B1 light
notes: as for B1

He/Con 1a [1]: 108% | He/Con 2aR [2]: 125% | He/Con 2aH [3]: 86.7% | He/Con 2b [4]: 166%
B10: GpH7-A5/GpH7-B3 variant K326_20W/GpL16-k0 (antibody, human IgG1, kappa)
heavy 1: not shown
heavy 2: not shown
light: B1 light
notes: as for B1

He/Con 1a [1]: 101% | He/Con 2aR [2]: 76.4% | He/Con 2aH [3]: 80.6% | He/Con 2b [4]: 101%
B11: GpH7-A5/GpH7-B3 variant L328_18N/GpL16-k0 (antibody, human IgG1, kappa)
heavy 1: not shown
heavy 2: not shown
light: B1 light
notes: as for B1

He/Con 1a [1]: 107% | He/Con 2aR [2]: 125% | He/Con 2aH [3]: 110% | He/Con 2b [4]: 156%
B12: GpH7-A5/GpH7-B3 variant K326_02A/GpL16-k0 (antibody, human IgG1, kappa)
heavy 1: not shown
heavy 2: not shown
light: B1 light
notes: as for B1

He/Con 1a [1]: 110% | He/Con 2aR [2]: 110% | He/Con 2aH [3]: 113% | He/Con 2b [4]: 118%
B13: GpH7-A5/GpH7-B3 variant K326_18N/GpL16-k0 (antibody, human IgG1, kappa)
heavy 1: not shown
heavy 2: not shown
light: B1 light
notes: as for B1

He/Con 1a [1]: 104% | He/Con 2aR [2]: 115% | He/Con 2aH [3]: 103% | He/Con 2b [4]: 131%
B14: GpH7-A5/GpH7-B3 variant L328_19Q/GpL16-k0 (antibody, human IgG1, kappa)
heavy 1: not shown
heavy 2: not shown
light: B1 light
notes: as for B1

He/Con 1a [1]: 81.4% | He/Con 2aR [2]: 72.7% | He/Con 2aH [3]: 57.6% | He/Con 2b [4]: 59.5%
B15: GpH7-A5/GpH7-B3 variant P329_10E/GpL16-k0 (antibody, human IgG1, kappa)
heavy 1: not shown
heavy 2: not shown
light: B1 light
notes: as for B1

He/Con 1a [1]: 102% | He/Con 2aR [2]: 137% | He/Con 2aH [3]: 83% | He/Con 2b [4]: 198%
B16: GpH7-A5/GpH7-B3 variant N325_13S/GpL16-k0 (antibody, human IgG1, kappa)
heavy 1: not shown
heavy 2: not shown
light: B1 light
notes: as for B1

He/Con 1a [1]: 103% | He/Con 2aR [2]: 153% | He/Con 2aH [3]: 138% | He/Con 2b [4]: 176%
B17: GpH7-A5/GpH7-B3 variant L328_14T/GpL16-k0 (antibody, human IgG1, kappa)
heavy 1: not shown
heavy 2: not shown
light: B1 light
notes: as for B1

He/Con 1a [1]: 109% | He/Con 2aR [2]: 115% | He/Con 2aH [3]: 102% | He/Con 2b [4]: 133%
B18: GpH7-A5/GpH7-B3 variant K326_16H/GpL16-k0 (antibody, human IgG1, kappa)
heavy 1: not shown
heavy 2: not shown
light: B1 light
notes: as for B1

He/Con 1a [1]: 96.1% | He/Con 2aR [2]: 60.3% | He/Con 2aH [3]: 62.5% | He/Con 2b [4]: 51.6%
B19: GpH7-A5/GpH7-B3 variant Q295_01G/GpL16-k0 (antibody, human IgG1, kappa)
heavy 1: not shown
heavy 2: not shown
light: B1 light
notes: as for B1

He/Con 1a [1]: 98.5% | He/Con 2aR [2]: 106% | He/Con 2aH [3]: 84.5% | He/Con 2b [4]: 100%
B20: GpH7-A5/GpH7-B3 variant L328_16H/GpL16-k0 (antibody, human IgG1, kappa)
heavy 1: not shown
heavy 2: not shown
light: B1 light
notes: as for B1

He/Con 1a [1]: 100% | He/Con 2aR [2]: 94.5% | He/Con 2aH [3]: 71.4% | He/Con 2b [4]: 81.2%
B21: GpH7-A5/GpH7-B3 variant S298_01G/GpL16-k0 (antibody, human IgG1, kappa)
heavy 1: not shown
heavy 2: not shown
light: B1 light
notes: as for B1

He/Con 1a [1]: 105% | He/Con 2aR [2]: 98.6% | He/Con 2aH [3]: 105% | He/Con 2b [4]: 100%
B22: GpH7-A5/GpH7-B3 variant K326_12R/GpL16-k0 (antibody, human IgG1, kappa)
heavy 1: not shown
heavy 2: not shown
light: B1 light
notes: as for B1

He/Con 1a [1]: 102% | He/Con 2aR [2]: 160% | He/Con 2aH [3]: 111% | He/Con 2b [4]: 200%
B23: GpH7-A5/GpH7-B3 variant L328_07I/GpL16-k0 (antibody, human IgG1, kappa)
heavy 1: not shown
heavy 2: not shown
light: B1 light
notes: as for B1

He/Con 1a [1]: 104% | He/Con 2aR [2]: 174% | He/Con 2aH [3]: 106% | He/Con 2b [4]: 240%
B24: GpH7-A5/GpH7-B3 variant L328_15Y/GpL16-k0 (antibody, human IgG1, kappa)
heavy 1: not shown
heavy 2: not shown
light: B1 light
notes: as for B1

He/Con 1a [1]: 109% | He/Con 2aR [2]: 128% | He/Con 2aH [3]: 119% | He/Con 2b [4]: 168%
B25: GpH7-A5/GpH7-B3 variant K326_14T/GpL16-k0 (antibody, human IgG1, kappa)
heavy 1: not shown
heavy 2: not shown
light: B1 light
notes: as for B1

He/Con 1a [1]: 101% | He/Con 2aR [2]: 150% | He/Con 2aH [3]: 146% | He/Con 2b [4]: 186%
B26: GpH7-A5/GpH7-B3 variant L328_13S/GpL16-k0 (antibody, human IgG1, kappa)
heavy 1: not shown
heavy 2: not shown
light: B1 light
notes: as for B1

He/Con 1a [1]: 105% | He/Con 2aR [2]: 111% | He/Con 2aH [3]: 55.3% | He/Con 2b [4]: 139%
B27: GpH7-A5/GpH7-B3 variant N325_09D/GpL16-k0 (antibody, human IgG1, kappa)
heavy 1: not shown
heavy 2: not shown
light: B1 light
notes: as for B1

He/Con 1a [1]: 108% | He/Con 2aR [2]: 132% | He/Con 2aH [3]: 108% | He/Con 2b [4]: 185%
B28: GpH7-A5/GpH7-B3 variant K326_06M/GpL16-k0 (antibody, human IgG1, kappa)
heavy 1: not shown
heavy 2: not shown
light: B1 light
notes: as for B1

He/Con 1a [1]: 103% | He/Con 2aR [2]: 150% | He/Con 2aH [3]: 116% | He/Con 2b [4]: 157%
B29: GpH7-A5/GpH7-B3 variant L328_03V/GpL16-k0 (antibody, human IgG1, kappa)
heavy 1: not shown
heavy 2: not shown
light: B1 light
notes: as for B1

He/Con 1a [1]: 101% | He/Con 2aR [2]: 148% | He/Con 2aH [3]: 122% | He/Con 2b [4]: 176%
B30: GpH7-A5/GpH7-B3 variant L328_06M/GpL16-k0 (antibody, human IgG1, kappa)
heavy 1: not shown
heavy 2: not shown
light: B1 light
notes: as for B1

He/Con 1a [1]: 111% | He/Con 2aR [2]: 131% | He/Con 2aH [3]: 102% | He/Con 2b [4]: 179%
B31: GpH7-A5/GpH7-B3 variant K326_15Y/GpL16-k0 (antibody, human IgG1, kappa)
heavy 1: not shown
heavy 2: not shown
light: B1 light
notes: as for B1

He/Con 1a [1]: 107% | He/Con 2aR [2]: 129% | He/Con 2aH [3]: 101% | He/Con 2b [4]: 174%
B32: GpH7-A5/GpH7-B3 variant K326_04F/GpL16-k0 (antibody, human IgG1, kappa)
heavy 1: not shown
heavy 2: not shown
light: B1 light
notes: as for B1

He/Con 1a [1]: 100% | He/Con 2aR [2]: 177% | He/Con 2aH [3]: 84.9% | He/Con 2b [4]: 273%
B33: GpH7-A5/GpH7-B3 variant L328_04F/GpL16-k0 (antibody, human IgG1, kappa)
heavy 1: not shown
heavy 2: not shown
light: B1 light
notes: as for B1

He/Con 1a [1]: 101% | He/Con 2aR [2]: 150% | He/Con 2aH [3]: 154% | He/Con 2b [4]: 180%
B34: GpH7-A5/GpH7-B3 variant L328_02A/GpL16-k0 (antibody, human IgG1, kappa)
heavy 1: not shown
heavy 2: not shown
light: B1 light
notes: as for B1

He/Con 1a [1]: 106% | He/Con 2aR [2]: 118% | He/Con 2aH [3]: 103% | He/Con 2b [4]: 141%
B35: GpH7-A5/GpH7-B3 variant K326_05P/GpL16-k0 (antibody, human IgG1, kappa)
heavy 1: not shown
heavy 2: not shown
light: B1 light
notes: as for B1
